Patent US11583587B2, “Polymer” (VECTURA LIMITED, priority 2016, dated 2023)

Experiments:
complement proteins = test: Complement activation assay (residual haemolytic capacity of normal human serum); details: at the protein concentrations investigated
Protocol: Polymer-lysozyme nanocomplexes or free lysozyme were kept in contact with normal human serum (NHS) and the residual haemolytic capacity was measured to study the complement activation. NHS was received from healthy volunteers, aliquoted and stored at −80° C. until use. Sheep erythrocytes were sensitised by rabbit anti-sheep erythrocyte antibodies at a final dilution of 1/800 v/v and these sensitised sheep erythrocytes were suspended at a final concentration of 1×10^8 cells mL^−1 in veronal-buffer saline (VBS2+, containing 0.5 mM Mg and 0.15 mM Ca2+). VBS2+ and NHS were mixed with polymer-lysozyme nanocomplexes or free lysozyme at final protein concentration of 1.116 mg mL^−1 so that the final dilution of NHS in the reaction mixture was 1/4 (v/v) in a final volume of 400 μl. […] The supernatant was collected and the optical density was measured at 415 nm with Dynex absorbance microplate reader (Dynex technologies, USA).
Sample without serum was used here as […] (100% complement activation, 0% sensitised sheep erythrocytes lysis) and employed to correct the absorbance values from the samples. […] They can be calculated by a linear fit to a log-log version of the Von Krogh (equation 1). Particularly, in this study, the data was expressed as the percentage of complement activation relative to 100% complement activation observed with our positive control samples.

trypsin = test: Protein protection against proteolytic enzymes (trypsin, then poly(allyl amine) disassembly); format: biochemical, bovine
Protocol: In order to assess the enzymatic activity of the lysozyme model protein, a turbidimetric enzymatic assay was performed by measuring the decrease in optical density of a suspension of Micrococcus lysodeikticus lyophilized cells, a natural substrate for lysozyme, in PB. Nanocomplexes and also free lysozyme were extracted from the dry powders as previously described, at a protein concentration of […] (as quantified by BCA assay). 10 mg of lyophilised cells were added to 20 mL of PB. 300 μL of this substrate suspension were added to 150 μL of particle solution and the decrease in optical density was measured at λ=460 nm as a function of time for 60 sec. The absorbance decay plots from 0 to 10 sec were fitted to a linear equation and the enzymatic activities were then determined from the slope of the fitted line. Not spray-dried free lysozyme was used in this work as reference (100% enzymatic activity).
Nanocomplexes were recovered from the dry powders as previously described, at a protein concentration of 37 μg mL^−1 (as quantified by BCA assay). 657 μg of trypsin (≥10,000 BAEE units/mg protein) were added to 4 mL of particle solution and the mixture was kept at room temperature for 3 h under gentle stirring. […] Lysozyme activity was then quantified as previously described. […]

lysozyme: Model protein; samples named lysozyme contained no polymer (lysozyme 5% w/w)
hemolysis of sensitized sheep erythrocytes without serum (complement proteins): did not lead to hemolysis | decrease in enzymatic activity after trypsin (trypsin; no polymer added to the dry powder): > 60% | residual lysozyme activity after trypsin (trypsin; trypsin 3 h in PB, then poly(allyl amine) 1 h, % of initial activity): less than 40%
